Measured values taken from the supplement of paper PMC9170038.

These sequences were tested on MS2 coat protein (assay: apparent KD of MS2 coat protein, switch ON state; designed switch direction (-1 OFF switch, 1 ON switch): -1; higher = weaker reporter binding). Conditions: FMN input: 0 or 200 uM; Eterna round: R93 (includes R88 designs).
In short: (§1)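 On-chip transcription from Illumina sequencing clusters produced the designed RNA switches. These were titrated with SNAP-549-labelled MS2 coat protein (twofold steps, 0.7 or 1.5 nM to 3 µM) in 100 mM Tris-HCl pH 7.5, 80 mM KCl, 4 mM MgCl2, with or without constant ligand. The apparent KD given is the per-design median of normalised cluster binding-curve fits.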

Compared with “AAAAAGUAAGGAUAUAGCAAAGGUCACGAAAGUGACAAAGGCUAGAAGGUACAUGAGGAUCACCCAUGUCCAAA [Fiskers Exclusion 4 D2 63% 3]”, “AAAAAACAUGAGGAUCACCCAUGUAAGGAUAUCCAAAAGAAAAGAAAAGAAAGAAGAAGGAGAAGGUACAAGAA [Sahure]” is 2.1-fold higher in “apparent KD of MS2 coat protein” value: 0.0199 µM for the first, 0.0411 µM for the second.

Compared with “UCCGCACAUGAGGAUCACCCAUGUCAGGAUAUACAAGAAAAUCAGGCUAAUGCCUGAAGUAGAAGGGACGAGGA [Armaingean]”, “AAGAAGUCAGGAUAUCCAAAAGAAAAGAAAAGAAAAGAAAAGGAGAAGGGACAUGAGGAUCACCCAUGUAAGAA [Khnemibre Ahmose II]” is 2.6-fold higher in “apparent KD of MS2 coat protein” value: 0.0277 µM for the first, 0.0713 µM for the second.

“GCUUGGCUAGGAUAUACAUGAGGAUCACCCAUGUGAGAGAAAAAAGUGAGAAAGAAAAGUAGAAGGAGUUGAGG [salish99-ex3-82]” and “AAAAAACAUGAGGAUCACCCAUGUGAGGAUAUCCUAAAAAAAAAAAAAAAAAAAAAAAGGAGAAGGCACAUAAA [EXCLS-II]” are within 1.5-fold of each other in “apparent KD of MS2 coat protein” value: 0.0462 µM for the first, 0.0476 µM for the second.

“AAAAAGUGAGGAUAUACGCUGAAGAGUAGACACAACCAGGCGUAGAAGGCACAUGAGGAUCACCCAUGUACAAA [Ex4 Malc#9]” and “AUAAAACAUGAGGAUCACCCAUGUGAGGAUAUGCGAAAUAAUGAAUAAAGAAAUAAAAGCAGAAGGCACAAAAA [LROPPY Exclusion 1 - v05_deltaG=1.64 break up some As mixed]” are within 1.5-fold of each other in “apparent KD of MS2 coat protein” value: 0.0286 µM for the first, 0.0328 µM for the second.

First: AGUUGGCGAGGAUAUACAUGAGGAUCACCCAUGUGAGAGAUAAAAGUGAGAAAGAAAAGUAGAAGGCGCUCACA [JL Lego Mod 15]
Second: AAAGAUACAGGAUAUACAUGAGGAUCACCCAUGUGGAAUCUAAAAUGGGAAAAAGAAAGUAGAAGGGUAUAAAA [Ex 3 May 39]
The “apparent KD of MS2 coat protein” value of the first is 3.1-fold higher: 0.107 µM for the first, 0.034 µM for the second.

“AAAAAAAGAGGAUAUACGUACAUGUCAAAAGACGUGAAGGGACAUGAGGAUCACCCAUGUAGAAGGUUUAAAAA [JL Wide Open 30]” and “GAAAGGGCAGGAUAUGCAGAGAGAGAGAGAGAAAAAAAAAAACAUGAGGAUCACCCAUGUAGAAGGGCCGAAAG [salish99-ex2-05]” are within 1.5-fold of each other in “apparent KD of MS2 coat protein” value: 0.0355 µM for the first, 0.0424 µM for the second.

First: AGGAACCUAGGAUAUACAUGAGGAUCACCCAUGUCACGAGUCAAACACAGGUAUCCUAGUAGAAGGAGGAACAC [Inlaveor]
Second: AAGAAUCAAGGAUAUACAAGGAAGAAAGAAAAGAAAAGAAAACAUGAGGAUCACCCAUGUAGAAGGUGAUAGAA [EteRNA is fun!]
The “apparent KD of MS2 coat protein” value of the first is 15-fold lower: 0.022 µM for the first, 0.327 µM for the second.

Going from “CUUAAGUCAGGAUAUGUCAAAAGUCACAAAAGUGACAAAAGACAGAAGGGACAUGAGGAUCACCCAUGUAAAAA [Starry Exclusion 4.5 (starryjess round 1 mod)]” to “CUCAUGUGAGGAUAUGUACGAAAAAAUAAAAAAAUAAAAGUACAGAAGGCACAUGAGGAUCACCCAUGUGAAAA [EX4 398: Minimal 11]”, the “apparent KD of MS2 coat protein” value falls from 0.0783 µM to 0.0425 µM (1.8-fold).

Compared with “AAACAACAUGAGGAUCACCCAUGUUAGGAUAUGAACGAAAAUAAAUAAAAAUAAAAGUUCAGAAGGGACAAAAA [66%, Wbt, 20]”, “AAGAACGUAGGAUAUACAAAAUAAAAGAAAAGAAAGAAAGAACAUGAGGAUCACCCAUGUAGAAGGGCGAAGAA [Sekhemresewadjtawy Sobekhotep III]” is 2.2-fold higher in “apparent KD of MS2 coat protein” value: 0.023 µM for the first, 0.0495 µM for the second.

In the case of “AAAAAACAUGAGGAUCACCCAUGUGAGGAUAUGCAGCGAAUAAAGAAAGAAGAAAGCAGCAGAAGGCACACCAA [Amethyst 78]”, the “apparent KD of MS2 coat protein” value is reported as 0.0264 µM.

The sequences below were run on MS2 coat protein (assay: apparent KD of MS2 coat protein, switch OFF state (with FMN for OFF switches, without FMN for ON switches); designed switch direction (-1 OFF switch, 1 ON switch): -1; higher = weaker reporter binding). Conditions: FMN input: 0 or 200 uM; Eterna round: R93 (includes R88 designs).
In short: as §1

Going from “AAAAAGUAAGGAUAUAGCAAAGGUCACGAAAGUGACAAAGGCUAGAAGGUACAUGAGGAUCACCCAUGUCCAAA [Fiskers Exclusion 4 D2 63% 3]” to “AAAAAACAUGAGGAUCACCCAUGUAAGGAUAUCCAAAAGAAAAGAAAAGAAAGAAGAAGGAGAAGGUACAAGAA [Sahure]”, the “apparent KD of MS2 coat protein” value rises from 0.0177 µM to 0.0324 µM (1.8-fold).

“UCCGCACAUGAGGAUCACCCAUGUCAGGAUAUACAAGAAAAUCAGGCUAAUGCCUGAAGUAGAAGGGACGAGGA [Armaingean]” and “AAGAAGUCAGGAUAUCCAAAAGAAAAGAAAAGAAAAGAAAAGGAGAAGGGACAUGAGGAUCACCCAUGUAAGAA [Khnemibre Ahmose II]” are within 1.5-fold of each other in “apparent KD of MS2 coat protein” value: 0.016 µM for the first, 0.0209 µM for the second.

Compared with “GCUUGGCUAGGAUAUACAUGAGGAUCACCCAUGUGAGAGAAAAAAGUGAGAAAGAAAAGUAGAAGGAGUUGAGG [salish99-ex3-82]”, “AAAAAACAUGAGGAUCACCCAUGUGAGGAUAUCCUAAAAAAAAAAAAAAAAAAAAAAAGGAGAAGGCACAUAAA [EXCLS-II]” is 1.6-fold higher in “apparent KD of MS2 coat protein” value: 0.0397 µM for the first, 0.0648 µM for the second.

“AAAAAGUGAGGAUAUACGCUGAAGAGUAGACACAACCAGGCGUAGAAGGCACAUGAGGAUCACCCAUGUACAAA [Ex4 Malc#9]” and “AUAAAACAUGAGGAUCACCCAUGUGAGGAUAUGCGAAAUAAUGAAUAAAGAAAUAAAAGCAGAAGGCACAAAAA [LROPPY Exclusion 1 - v05_deltaG=1.64 break up some As mixed]” are within 1.5-fold of each other in “apparent KD of MS2 coat protein” value: 0.0261 µM for the first, 0.0289 µM for the second.

“AGUUGGCGAGGAUAUACAUGAGGAUCACCCAUGUGAGAGAUAAAAGUGAGAAAGAAAAGUAGAAGGCGCUCACA [JL Lego Mod 15]” and “AAAGAUACAGGAUAUACAUGAGGAUCACCCAUGUGGAAUCUAAAAUGGGAAAAAGAAAGUAGAAGGGUAUAAAA [Ex 3 May 39]” are within 1.5-fold of each other in “apparent KD of MS2 coat protein” value: 0.0601 µM for the first, 0.0635 µM for the second.

Going from “AAAAAAAGAGGAUAUACGUACAUGUCAAAAGACGUGAAGGGACAUGAGGAUCACCCAUGUAGAAGGUUUAAAAA [JL Wide Open 30]” to “GAAAGGGCAGGAUAUGCAGAGAGAGAGAGAGAAAAAAAAAAACAUGAGGAUCACCCAUGUAGAAGGGCCGAAAG [salish99-ex2-05]”, the “apparent KD of MS2 coat protein” value rises from 0.0163 µM to 0.0322 µM (2-fold).

Compared with “AGGAACCUAGGAUAUACAUGAGGAUCACCCAUGUCACGAGUCAAACACAGGUAUCCUAGUAGAAGGAGGAACAC [Inlaveor]”, “AAGAAUCAAGGAUAUACAAGGAAGAAAGAAAAGAAAAGAAAACAUGAGGAUCACCCAUGUAGAAGGUGAUAGAA [EteRNA is fun!]” is 20-fold higher in “apparent KD of MS2 coat protein” value: 0.0421 µM for the first, 0.846 µM for the second.

Going from “CUUAAGUCAGGAUAUGUCAAAAGUCACAAAAGUGACAAAAGACAGAAGGGACAUGAGGAUCACCCAUGUAAAAA [Starry Exclusion 4.5 (starryjess round 1 mod)]” to “CUCAUGUGAGGAUAUGUACGAAAAAAUAAAAAAAUAAAAGUACAGAAGGCACAUGAGGAUCACCCAUGUGAAAA [EX4 398: Minimal 11]”, the “apparent KD of MS2 coat protein” value falls from 0.139 µM to 0.0243 µM (5.7-fold).

“AAACAACAUGAGGAUCACCCAUGUUAGGAUAUGAACGAAAAUAAAUAAAAAUAAAAGUUCAGAAGGGACAAAAA [66%, Wbt, 20]” and “AAGAACGUAGGAUAUACAAAAUAAAAGAAAAGAAAGAAAGAACAUGAGGAUCACCCAUGUAGAAGGGCGAAGAA [Sekhemresewadjtawy Sobekhotep III]” are within 1.5-fold of each other in “apparent KD of MS2 coat protein” value: 0.0282 µM for the first, 0.0396 µM for the second.

In the case of “AAAAAACAUGAGGAUCACCCAUGUGAGGAUAUGCAGCGAAUAAAGAAAGAAGAAAGCAGCAGAAGGCACACCAA [Amethyst 78]”, the “apparent KD of MS2 coat protein” value is reported as 0.0441 µM.
